From paper PMC11721787 (Science translational medicine, 2023)

Target: ANDV Gn^H/Gc (Andes virus; strain , Q9E006 …, UniProt Q9E006)
Test: BLI

Row | Binder | half-life (t1/2) of the complex at pH 5.5 [s] | fold reduction of dissociation at acidic pH against ADI-42898 [fold]
1 | ADI-42898 (monoclonal antibody, IgG) (antibody, V domains shown) VH: QVQLVESGGGVVQPGRSLRLSCAASGFTFSSYAMHWVRQAPGKGLEWVAVTWFDVSKKDYADSVKGRFTISRDNSKNTLYLQMNSLRAEDTAVYYCARNLIRYSGSYFPVHGMDVWGQGTTVTVSS VL: DIVMTQSPLSLPVTPGEPASISCRSSQSLLHTYGYNCLDWYLQRPGQSPQLLISLGSYRASGVPDRFSGSGSGTDFTLKISRVEAEDVGVYYCMQALHPFTFGGGTKVEIK | 519 | –
2 | ADI-65533 (antibody, V domains shown) VH: QVQLVESGGGVVQPGRSLRLSCAASGFTFSSYAMHWVRQAPGKGLEWVAVTWFDVSKKDYADSVKGRFTISRDNSKNTLYLQMNSLRAEDTAVYYCARNLIRYSVSYFPVHGMDVWGQGTTVTVSS VL: DIVMTQSPLSLPVTPGEPASISCRSSQSLLHTYGYNVLDWYLQRPGQSPQLLISLGSYRASGVPDRFSGSGSGTDFTLKISRVEAEDVGVYYCMQALHPFTFGGGTKVEIK | – | 10
3 | ADI-65534 (antibody, V domains shown) VH: QVQLVESGGGVVQPGRSLRLSCAASGFEFSSYAMHWVRQAPGKGLEWVAVTWFDVSKKDYADSVKGRFTISRDNSKNTLYLQMNSLRAEDTAVYYCARNLIRYSVSYFPVHGMDVWGQGTTVTVSS VL: DIVMTQSPLSLPVTPGEPASISCRSSQSLLHTYGYNVLDWYLQRPGQSPQLLISLGSYRASGVPDRFSGSGSGTDFTLKISRVEAEDVGVYYCMQALHPFTFGGGTKVEIK | – | 10
